Consider 1 substance from article PMC5016126.

This test addresses FLAG-GLUT4 (GLUT4 tagged at the N and C termini with FLAG and His9, tags not cleaved) (UniProt P19357). The test can be described thus: SDS-PAGE and Western blot; anti-FLAG immunoblot of purified FLAG-GLUT4 before and after TEV protease cleavage (0, 3 and 24 h) in LMNG detergent micelles or in 70% egg PC, 15% POPA, 15% POPE liposomes. A general note: Immunoblotting shows a protein as a band on a membrane.

What is called stoichiometry N is a count of units in the complex or per binding partner. In turn, “FLAG-GLUT4 (GLUT4 tagged at the N and C termini with FLAG and His9, tags not cleaved) (from UniProt P19357 1-509) (natural protein)” displayed a stoichiometry N of 2.
